In PMC4742562, “Structure and Interactions of a Dimeric Variant of sHIP, a Novel Virulence Determinant of Streptococcus pyogenes” (Frontiers in Microbiology, 2016):
“Also recorded” adds a separate entry of the source.

Key:
[1] = test system: histidine-rich glycoprotein (HRG); test: Interaction of the sHIP mutant with intact HRG and histidine-rich repeats; format: binding; settings: stated in abstract; no separate data shown
[2] = Analytical ultracentrifugation, sedimentation velocity (oligomeric state in solution); format: physicochemical; settings: 20°C, 50000 rpm, Beckman XL-I, 20 mM MES, pH 5.5, SEDFIT c(S)
Method: Sedimentation velocity experiments were performed at 20°C and 50000 rpm using a Beckman XL-I instrument. Samples containing either sHIPwt or sHIPqp were in 20 mM MES buffer (2-(N-morpholino) ethanesulfonic acid), pH 5.5. The data were analyzed with SEDFIT using a continuous c (S) distribution (Schuck, [2000]). HYDROPRO (Ortega et al., [2011]) was used to calculate the theoretical sedimentation coefficient using the PDB IDs 4MER (sHIPwt) and 4PZ1 (sHIPqp), respectively.
Figure 2 Sedimentation velocity experiments for protein sHIP. The dotted lines indicate the theoretical sedimentation coefficient for a tetramer and a dimer respectively calculated using HYDROPRO and the structural coordinates for protein sHIPwt (PDB ID: 4MER) and protein sHIPqp (PDB ID: 4PZ1). The wild-type sHIPwt is shown in black, and the sHIPqp mutant in red respectively.

[3] = test system: histidine-rich glycoprotein (HRG); test: Antimicrobial assay: inhibition of the bactericidal activity of HRG against S. pyogenes AP1; format: cell-based; settings: recombinant His-tagged HRG 0.45 μM, S. pyogenes AP1 2 × 10^6 cfu/ml, 10 mM MES, pH 5.5, 5 mM glucose, various sHIP concentrations, 40 min, 37°C, cfu counts, at least three repeats, mean ± SD (values only in Figure 3)
Method: The S. pyogenes strain AP1 (40/58), was from the World Health Organization Collaborating Centre for Reference and Research on Streptococci, Prague, Czech Republic. The bacteria were cultivated in THY (Todd-Hewitt broth (Difco) supplemented with 0.2% yeast extract (Oxoid) at 37°C and 5% CO2 until reaching mid-log phase (OD 620 nm approximately 0.4). The bacterial cells were washed and resuspended in 10 mM Tris-HCl, pH 7.5, containing 5 mM glucose, to a concentration of 2 × 10^9 cfu (colony forming unit)/ml. Subsequently, the bacteria were diluted to a concentration of 2 × 10^6 cfu/ml in 10 mM MES buffer, pH 5.5, containing 5 mM glucose. Fifty microliters of the bacterial solution was incubated with recombinant His-tagged HRG (Creative Biomart) at a concentration of 0.45 μM together with various concentrations of protein sHIPwt or protein sHIPqp for 40 min at 37°C. Serial dilutions of the incubation mixtures were plated on TH agar, plates were incubated over night at 37°C and the number of cfu's were determined.
Experiments were repeated at least three times and mean values ± SD are shown.

[4] = ref Rydengård et al., 2007; cited from earlier work
sHIP = settings: previous studies; ref Wisniewska et al., 2014; cited from earlier work
From the text: In a recent study, we quantitatively analyzed and compared S. pyogenes proteins in the growth medium of a strain that is virulent to mice (AP1), with a non-virulent strain (SF370).

S. pyogenes = settings: ref Shannon et al., 2010; cited from earlier work

B1: sHIPqp (protein)
chain: SMKQDQLIVEKMEQTYEAFSPKLANLIEALDAFKEHYEEYATLRNFYSSDEWFRLANQPWDDIPSGVLSEDLLFDMIGDHNQLAADIADLAPIMAKHM
modifications: left off: His-tag, N-terminal, cleaved
[1]
  interaction with intact HRG and the histidine-rich repeats in HRG: interacts with intact histidine-rich glycoprotein (HRG) and the histidine-rich repeats in HRG
[2]
  oligomeric state in solution: dimers in solution
[2]; listed as sHIP mutant
  oligomeric state in solution: only as dimers in solution
[3]
  inhibition of the bactericidal activity of HRG: inhibits the bactericidal activity of HRG to the same or even higher extent that wildtype sHIP; also recorded: inhibits the bactericidal activity of HRG more efficiently than protein sHIP wildtype; also recorded: maintain its full inhibitory capacity of HRG in antimicrobial assays
[3]; listed as sHIP mutant
  inhibition of the bactericidal activity of HRG: inhibits their antibacterial activity to the same or even higher extent as compared to the wild type protein sHIP

B2: HRG: abundant plasma glycoprotein of approximately 60 kDa; recombinant His-tagged HRG (protein)
chain: VSPTDCSAVEPEAEKALDLINKRRRDGYLFQLLRIADAHLDRVENTTVYYLVLDVQESDCSVLSRKYWNDCEPPDSRRPSEIVIGQCKVIATRHSHESQDLRVIDFNCTTSSVSSALANTKDSPVLIDFFEDTERYRKQANKALEKYKEENDDFASFRVDRIERVARVRGGEGTGYFVDFSVRNCPRHHFPRHPNVFGFCRADLFYDVEALDLESPKNLVINCEVFDPQEHENINGVPPHLGHPFHWGGHERSSTTKPPFKPHGSRDHHHPHKPHEHGPPPPPDERDHSHGPPLPQGPPPLLPMSCSSCQHATFGTNGAQRHSHNNNSSDLHPHKHHSHEQHPHGHHPHAHHPHEHDTHRQHPHGHHPHGHHPHGHHPHGHHPHGHHPHCHDFQDYGPCDPPPHNQGHCCHGHGPPPGHLRRRGPGKGPRPFHCRQIGSVYRLPPLRKGEVLPLPEANFPSFPLPHHKHPLKPDNQPFPQSVSESCPGKFKSGFPQVSMFFTHTFPK
modifications: left off: His-tag, end not stated, kept
notes: abundant plasma glycoprotein of approximately 60 kDa; recombinant His-tagged HRG
[4]
  antimicrobial potency: broad antimicrobial potency
sHIP
  affinity for sHIP (in words): nanomolar to micromolar affinity; also recorded: high affinity
S. pyogenes
  antibacterial activity against S. pyogenes: antibacterial activity including activity against S. pyogenes
